B1: RNA 6 (A15) (ssRNA)
RNA: AAAAAAAAAAAAAAA
B2: RNA 1 (consensus sequence 1) (ssRNA)
RNA: GGCUGAGGCAGG
B3: RNA 2 (consensus derived) (ssRNA)
RNA: GGGUGGGGGUGG
B4: RNA 3 (minimal GRE) (ssRNA)
RNA: UGUUUGUUUGUCCC

NS5A domain 1+ (WT) (Hepatitis C virus, sequence (Q9WMX2 2005-2221): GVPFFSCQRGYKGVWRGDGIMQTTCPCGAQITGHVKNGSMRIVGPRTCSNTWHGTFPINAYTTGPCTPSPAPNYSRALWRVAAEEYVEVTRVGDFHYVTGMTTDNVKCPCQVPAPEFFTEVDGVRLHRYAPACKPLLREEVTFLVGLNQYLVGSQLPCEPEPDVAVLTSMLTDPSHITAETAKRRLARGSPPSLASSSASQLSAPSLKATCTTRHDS

This series has as its target NS5A domain 1+ (WT) (Hepatitis C virus (replicon plasmid …, UniProt Q9WMX2 2005-2221)). In words: fluorescence polarization.
Molecule B1 had a dissociation constant (Kd) of 1000 ± 150 nM. As for B2, the figure is 10 ± 1.5 nM; as for B3, 20 ± 2.7 nM. B4 showed a dissociation constant Kd of 100 ± 10 nM.

These data come from article PMC5861452.
